Broadly, the Kd is a measure of binding affinity in units of concentration. What is called koff is the rate constant with which the complex falls apart. One may read the kon as the second-order rate constant of association. For orientation: EC50 means the concentration that produces a half-maximal response.

We go through two molecules from patent US20240067748A1 (NONA BIOSCIENCES SUZHOU, published 2024).

Test [1] addresses T1, human TROP2 protein (Sino Biological, #10428-H08H) (human, UniProt P09758 27-274).
T1 construct: bought protein; also called human Trop2 protein antigen (His tag); not shown: His tag
T1 sequence (looked up): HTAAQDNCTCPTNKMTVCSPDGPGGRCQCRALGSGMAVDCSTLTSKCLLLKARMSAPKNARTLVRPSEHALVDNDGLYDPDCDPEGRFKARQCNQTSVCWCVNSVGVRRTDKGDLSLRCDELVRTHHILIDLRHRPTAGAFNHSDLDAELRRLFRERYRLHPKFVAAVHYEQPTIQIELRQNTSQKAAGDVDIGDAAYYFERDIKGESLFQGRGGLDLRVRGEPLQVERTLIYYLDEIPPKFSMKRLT
In words: BLI, Octet RED96, AHC sensor. The essentials: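 Antibody at 40 nM is tested against captured human or monkey Trop2, which is loaded at 200 nM. Binding lasts 3 min and washout 5 min, both at 30° C in PBS pH 7.4 containing BSA and Tween 20.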
(In general: BLI is a label-free optical method that tracks binding on a fibre tip over time.)

Test [2] addresses T2, monkey Trop2 protein (Sino Biological, #90893-C08H) (monkey, UniProt A0A2K5UE71 27-274).
T2 construct: bought protein; also called monkey Trop2 protein antigen (His tag)
T2 sequence: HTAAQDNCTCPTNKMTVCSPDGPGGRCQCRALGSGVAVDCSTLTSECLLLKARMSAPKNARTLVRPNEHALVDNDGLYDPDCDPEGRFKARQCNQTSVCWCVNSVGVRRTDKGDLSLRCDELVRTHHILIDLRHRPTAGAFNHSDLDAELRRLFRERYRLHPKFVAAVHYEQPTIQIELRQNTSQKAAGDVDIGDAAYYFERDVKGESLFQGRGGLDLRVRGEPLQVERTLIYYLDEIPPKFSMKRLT
In words: BLI, Octet RED96, AHC sensor. In a few lines: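 Biolayer interferometry: human or monkey Trop2 at 200 nM in PBS pH 7.4 with 0.1% BSA and 0.02% Tween 20 captured on AHC sensors, then 40 nM antibody associated 3 min and dissociated 5 min at 30 °C. Association, dissociation constants and affinity fitted from real-time signals.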

Test [3] concerns the target T3, human Trop2 on cells (human, UniProt P09758 27-323).
T3 construct: whole, on cells; also called hTrop2; 293T-human Trop2 cells
T3 sequence (looked up): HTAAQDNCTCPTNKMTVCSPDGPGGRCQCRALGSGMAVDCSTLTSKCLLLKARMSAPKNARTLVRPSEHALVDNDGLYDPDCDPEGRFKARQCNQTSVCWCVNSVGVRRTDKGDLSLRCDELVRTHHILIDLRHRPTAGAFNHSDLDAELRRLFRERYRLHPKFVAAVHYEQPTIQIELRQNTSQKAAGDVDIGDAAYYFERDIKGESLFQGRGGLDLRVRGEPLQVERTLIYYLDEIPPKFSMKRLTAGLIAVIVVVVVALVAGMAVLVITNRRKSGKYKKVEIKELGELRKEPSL
In words: flow cytometry on 293T-human Trop2 cells. The essentials: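 Cells at 1×10⁶/mL in PBS were incubated for 1 h, washed in PBS+0.5% BSA, then stained with Alexa Fluor 488 anti-human IgG for 1 h at 4 °C. Cell-bound fluorescence was measured by flow cytometry, with all steps on ice.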
(Flow cytometry measures light scatter and fluorescence of single cells or particles in a stream.)

Test [4] addresses T4, monkey Trop2 on CHO-K1 cells (monkey, UniProt A0A2K5UE71 27-323).
T4 construct: also called CHO-K1/monkey Trop2
T4 sequence: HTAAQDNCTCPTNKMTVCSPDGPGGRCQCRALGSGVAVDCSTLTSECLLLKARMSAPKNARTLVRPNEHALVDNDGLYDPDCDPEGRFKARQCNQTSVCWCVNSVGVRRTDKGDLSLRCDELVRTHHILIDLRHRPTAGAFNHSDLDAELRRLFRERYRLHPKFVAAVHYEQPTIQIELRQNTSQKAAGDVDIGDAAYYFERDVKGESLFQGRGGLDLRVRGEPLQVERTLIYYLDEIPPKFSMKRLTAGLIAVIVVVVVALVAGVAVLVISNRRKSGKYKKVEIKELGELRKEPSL
In words: flow cytometry on CHO-K1/monkey Trop2 cells. The method, then:
CHO-K1/monkey Trop2 cells (Chempartner, Shanghai, China) and CHO-K1 blast cells were each digested with 3 mL of TrypLE, and the digestion was stopped with 7 mL of the corresponding medium. […] The cell solution was centrifuged, and the cells were washed once with PBS+0.5% BSA. […] The cells were washed once with PBS+0.5% BSA. The cells were incubated at 4° C. for 1 h in the dark with 100 μL of Alexa Fluor 488 goat anti-human IgG (Life technologies, #A-11013) diluted at 1:1000, and washed twice with PBS+0.5% BSA. The cells were resuspended in 200 μL of PBS+0.5% BSA. The suspension was centrifuged at 4° C. for 5 min at 2000 rpm and tested using a FACS verse flow cytometer or NovoCyte flow cytometer (ACEA Biosciences). All procedures were performed on ice.

B1: PR001133 (antibody, human IgG1, kappa, V domains shown)
VH: QVNLVESGGGVVQPGRSLKLSCAASGFTFSSYGMHWVRQAPGKGLEWVALIWSDGTNRYYTESVKGRFTISRDNSKNTLSLQMKSLRAEDTAVYYCAKDGWGTYGEYFQHWGQGTLVTVSS
VL: DIQMTQSPSSLSASVGDRVTITCRASQNINSYLHWYQQKPGKAPKLLIYAASSLQSGVPSRFSGSGSGTDFTLTISSLQPEDFAIYYCQQSYSIPPITFGQGTRLEIKR
notes: fully human IgG1/kappa; also called antibody No. (5)
In test [1], B1 showed a Kd of 1.1 nM, a Response of 0.386, a koff of 9.72e-05 s⁻¹ and a kon of 88500 M⁻¹ s⁻¹. Besides, in test [2], binding was characterised by a dissociation constant (Kd) of 2.49 nM, the Response was 0.369, the koff was 0.000149 s⁻¹ and the on-rate (kon) amounted to 59800 M⁻¹ s⁻¹. Further, in test [3], the EC50 was found to be 0.995 nM, the “Maximum (MFI)” value was determined as 7200 MFI and the Top % is 111%. Besides, in test [4], the 50% effective concentration (EC50) was 2.87 nM and the “Maximum MFI value” amounted to 55300 MFI.

B2: PR001162 (antibody, human IgG1, kappa, V domains shown)
VH: QVQLVESGGGVVQPGTSLRLSCVASGFTFSNDGMHWVRQAPGMGLEWVAIMWFDGGSKYYADSVKGRFTISRDNSKNTLYLQMNNLRAEDTAVYYCARDHPHYLGSGSFDYWGQGTLVTVSS
VL: EIVLTQSPATLSLSPGERATLSCRASQSVSSYLAWYQQKPGQAPRLLIYDASNRATGIPARFSGSGSGTDFTLTISSLQAEDVAVYYCQQYYSTPYTFGQGTKLEIKR
notes: fully human IgG1/kappa; also called antibody No. (23)
In test [1], B2 returned a dissociation constant Kd of 1.7 nM, a Response of 0.366, a koff of 0.000507 s⁻¹ and a kon of 298000 M⁻¹ s⁻¹. In test [2], this molecule yielded a Kd of 3.66 nM, a Response of 0.37, a koff of 0.000732 s⁻¹ and a kon of 200000 M⁻¹ s⁻¹. Further, in test [3], the EC50 worked out at 0.158 nM, the “Maximum (MFI)” value is 5850 MFI, the Top % is 90.2% and the “fold lower EC50 than the reference antibody hRS7” value was about 3 fold. Further, in test [4], the EC50 was 2.25 nM and the “Maximum MFI value” came to 45500 MFI.
